From the supplement of paper PMC7877785
± gives the uncertainty stated by the source.

Experiment: self-splicing fitness, log relative to wild type (ln ratio); higher = more splicing; Tetrahymena group I intron in knt gene, E. coli kanamycin selection, DiMSum; sequences stand for … in CUCUCU…GGAGGGAAAAGUUAUCAGGCAUGCACCUGGUAGCUAGUCUUUAAACCAAUAGAUUGCAUCGGUUUAAAAGGCAAGACCGUCAAAUUGCGGGAAAGGGGUCAACAGCCGUUCAGUACCAAGUCUCAGGGGAAACUUUGAGAUGGCCUUGCAAAGGGUAUGGUAAUAAGCUGACGGACAUGGUCCUAACCACGCAGCCAAGUCCUAAGUCAACAGAUCUUCUGUUGAUAUGGAUGCAGUUCACAGACUAAAUGUCGGUCGGGGAAGAUGUAUUCUUCUCAUAAGAUAUAGUCGGACCUCUCCUUAAUGGGAGCUAGCGGAUGAAGUGAUGCAACACUGGAGCCGCUGGGAACUAAUUUGUAUGCGAAAGUAUAUUGAUUAGUUUUGGAGUACUCGUGGUCG
Method in brief: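 The eight P1ex-region nucleotides of an intron in the knt kanamycin-resistance gene on pET-22b(+) were all randomised and the library put into E. coli BL21(DE3). Six replicate transformations were grown overnight at 37°C or 30°C on LB agar with or without 25 μg/mL kanamycin, together with 100 μg/mL carbenicillin, 50 μM IPTG and 0.2% rhamnose. Colonies were pooled and amplicon-sequenced on an Illumina HiSeq 2500. Fitness from DiMSum is the error-weighted combination of wild-type-normalised replicate fold changes, kanamycin over none.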

UUGGAGCAAUAUUACGAGGG
self-splicing fitness (ln) (30 °C): -2.34 ± 0.22 | self-splicing fitness (ln) (37 °C): -2.6 ± 0.49

UUGGAGCAAUAUUACGAUUC
self-splicing fitness (ln) (37 °C): -1.85 ± 0.32

UUGGAGCAAUAUUACGAUUG
self-splicing fitness (ln) (37 °C): -2.34 ± 0.41

UUGGAGCAAUAUUACGCACA
self-splicing fitness (ln) (30 °C): -0.871 ± 0.32

UUGGAGCAAUAUUACGCCCU
self-splicing fitness (ln) (37 °C): -1.44 ± 0.46

UUGGAGCAAUAUUACGCCUG
self-splicing fitness (ln) (30 °C): -2.22 ± 0.2 | self-splicing fitness (ln) (37 °C): -1.2 ± 0.23

UUGGAGCAAUAUUACGCGAU
self-splicing fitness (ln) (30 °C): -2.54 ± 0.33 | self-splicing fitness (ln) (37 °C): -0.423 ± 0.35

UUGGAGCAAUAUUACGCUAG
self-splicing fitness (ln) (30 °C): -2.56 ± 0.23 | self-splicing fitness (ln) (37 °C): -1.64 ± 0.2

UUGGAGCAAUAUUACGGAGG
self-splicing fitness (ln) (30 °C): -2.92 ± 0.24 | self-splicing fitness (ln) (37 °C): -2.01 ± 0.36

UUGGAGCAAUAUUACGGAUA
self-splicing fitness (ln) (30 °C): -2.85 ± 0.21 | self-splicing fitness (ln) (37 °C): -2.04 ± 0.23

UUGGAGCAAUAUUACGGUUA
self-splicing fitness (ln) (30 °C): -2.08 ± 0.45 | self-splicing fitness (ln) (37 °C): -1.49 ± 0.25

UUGGAGCAAUAUUACGGUUG
self-splicing fitness (ln) (30 °C): -3.97 ± 0.28 | self-splicing fitness (ln) (37 °C): -3.38 ± 0.31

UUGGAGCAAUAUUACGUCGG
self-splicing fitness (ln) (30 °C): -2.64 ± 0.26 | self-splicing fitness (ln) (37 °C): -0.784 ± 0.19

UUGGAGCAAUAUUACGUCUG
self-splicing fitness (ln) (30 °C): -2.66 ± 0.17 | self-splicing fitness (ln) (37 °C): -0.914 ± 0.22

UUGGAGCAAUAUUACGUGCU
self-splicing fitness (ln) (37 °C): -2.64 ± 0.34

UUGUAGCAAUAUUACGAACA
self-splicing fitness (ln) (30 °C): -0.432 ± 0.16 | self-splicing fitness (ln) (37 °C): -0.256 ± 0.15

UUGUAGCAAUAUUACGAGUA
self-splicing fitness (ln) (30 °C): -2.13 ± 0.31 | self-splicing fitness (ln) (37 °C): -1.22 ± 0.29

UUGUAGCAAUAUUACGAUAG
self-splicing fitness (ln) (30 °C): -1.52 ± 0.2 | self-splicing fitness (ln) (37 °C): -1.16 ± 0.17

UUGUAGCAAUAUUACGCAAC
self-splicing fitness (ln) (30 °C): -2.57 ± 0.41

UUGUAGCAAUAUUACGCAAU
self-splicing fitness (ln) (30 °C): -2.98 ± 0.34

UUGUAGCAAUAUUACGCAUA
self-splicing fitness (ln) (30 °C): -1.81 ± 0.16 | self-splicing fitness (ln) (37 °C): -1.31 ± 0.15

UUGUAGCAAUAUUACGCGAA
self-splicing fitness (ln) (30 °C): -1.02 ± 0.21 | self-splicing fitness (ln) (37 °C): -1.73 ± 0.28

UUGUAGCAAUAUUACGCGAG
self-splicing fitness (ln) (30 °C): -1.17 ± 0.11 | self-splicing fitness (ln) (37 °C): -0.735 ± 0.099

UUGUAGCAAUAUUACGCGUU
self-splicing fitness (ln) (30 °C): -2.56 ± 0.23 | self-splicing fitness (ln) (37 °C): -1.64 ± 0.33

UUGUAGCAAUAUUACGCUGA
self-splicing fitness (ln) (30 °C): -1.09 ± 0.18 | self-splicing fitness (ln) (37 °C): -1.05 ± 0.2

UUGUAGCAAUAUUACGGACG
self-splicing fitness (ln) (30 °C): -1.33 ± 0.19 | self-splicing fitness (ln) (37 °C): -0.721 ± 0.19

UUGUAGCAAUAUUACGGAGG
self-splicing fitness (ln) (30 °C): -3.76 ± 0.42 | self-splicing fitness (ln) (37 °C): -1.87 ± 0.35

UUGUAGCAAUAUUACGGGCA
self-splicing fitness (ln) (30 °C): -1.8 ± 0.21 | self-splicing fitness (ln) (37 °C): -0.65 ± 0.2

UUGUAGCAAUAUUACGUACG
self-splicing fitness (ln) (30 °C): -1.24 ± 0.12 | self-splicing fitness (ln) (37 °C): -0.138 ± 0.16

UUGUAGCAAUAUUACGUAUA
self-splicing fitness (ln) (30 °C): -2.1 ± 0.17 | self-splicing fitness (ln) (37 °C): -0.709 ± 0.15

UUGUAGCAAUAUUACGUGAG
self-splicing fitness (ln) (30 °C): -0.904 ± 0.076 | self-splicing fitness (ln) (37 °C): -0.739 ± 0.11

UUGUAGCAAUAUUACGUGGU
self-splicing fitness (ln) (30 °C): -3.35 ± 0.3 | self-splicing fitness (ln) (37 °C): -3.67 ± 0.42

UUGUAGCAAUAUUACGUUAC
self-splicing fitness (ln) (37 °C): -1.65 ± 0.43

UUUAAGCAAUAUUACGAACC
self-splicing fitness (ln) (37 °C): 0.0298 ± 0.37

UUUAAGCAAUAUUACGAGGU
self-splicing fitness (ln) (30 °C): -3.65 ± 0.22 | self-splicing fitness (ln) (37 °C): -2.04 ± 0.15

UUUAAGCAAUAUUACGAUUC
self-splicing fitness (ln) (30 °C): -2.23 ± 0.23 | self-splicing fitness (ln) (37 °C): -0.889 ± 0.19

UUUAAGCAAUAUUACGCAAG
self-splicing fitness (ln) (30 °C): -1.43 ± 0.2 | self-splicing fitness (ln) (37 °C): -0.275 ± 0.18

UUUAAGCAAUAUUACGCAGU
self-splicing fitness (ln) (30 °C): -2.7 ± 0.22 | self-splicing fitness (ln) (37 °C): -2.36 ± 0.27

UUUAAGCAAUAUUACGCGCC
self-splicing fitness (ln) (30 °C): -1.12 ± 0.18 | self-splicing fitness (ln) (37 °C): -1.4 ± 0.26

UUUAAGCAAUAUUACGCUAC
self-splicing fitness (ln) (30 °C): -3.5 ± 0.32

UUUAAGCAAUAUUACGGCAC
self-splicing fitness (ln) (30 °C): -2 ± 0.27 | self-splicing fitness (ln) (37 °C): -1.87 ± 0.23

UUUAAGCAAUAUUACGGCCA
self-splicing fitness (ln) (30 °C): -0.688 ± 0.11 | self-splicing fitness (ln) (37 °C): -0.335 ± 0.15

UUUAAGCAAUAUUACGGGCC
self-splicing fitness (ln) (37 °C): -2.57 ± 0.49

UUUAAGCAAUAUUACGGUCA
self-splicing fitness (ln) (30 °C): -1.15 ± 0.12 | self-splicing fitness (ln) (37 °C): -0.266 ± 0.1

UUUAAGCAAUAUUACGUAUU
self-splicing fitness (ln) (30 °C): -2.16 ± 0.18 | self-splicing fitness (ln) (37 °C): -0.782 ± 0.21

UUUAAGCAAUAUUACGUCAU
self-splicing fitness (ln) (30 °C): -3.03 ± 0.22 | self-splicing fitness (ln) (37 °C): -1.08 ± 0.15

UUUAAGCAAUAUUACGUGAG
self-splicing fitness (ln) (30 °C): -0.404 ± 0.067 | self-splicing fitness (ln) (37 °C): -0.0655 ± 0.094

UUUAAGCAAUAUUACGUGGC
self-splicing fitness (ln) (30 °C): -3.77 ± 0.23 | self-splicing fitness (ln) (37 °C): -3.57 ± 0.29

UUUAAGCAAUAUUACGUUGG
self-splicing fitness (ln) (30 °C): -1.45 ± 0.1 | self-splicing fitness (ln) (37 °C): -1.67 ± 0.17

UUUCAGCAAUAUUACGAAGU
self-splicing fitness (ln) (30 °C): -1.82 ± 0.22 | self-splicing fitness (ln) (37 °C): 0.335 ± 0.25

UUUCAGCAAUAUUACGACAA
self-splicing fitness (ln) (30 °C): -0.0726 ± 0.12 | self-splicing fitness (ln) (37 °C): -0.913 ± 0.14

UUUCAGCAAUAUUACGACCA
self-splicing fitness (ln) (30 °C): -0.495 ± 0.19 | self-splicing fitness (ln) (37 °C): -1.36 ± 0.23
